Experimental data: the DeepSol protein solubility set

Test: soluble on expression in E. coli; label from the status in PepcDB or PDB records

Sequence | soluble on expression in E. coli
MHHHHHHMNSRILSTGSYLPSHIRTNADLEKMVDTSDEWIVTRSGIRERRIAAEDETVATMGFEAAKNAIEAAQINPQDIELIIVATTSHSHAYPSAACQVQGLLNIDDAISFDLAAACTGFVYALSVADQFIRAGKVKKALVIGSDLNSRKLDETDRSTVVLFGDGAGAVILEASEQEGIISTHLHASADKNNALVLAQPERGIEKSGYIEMQGNETFKLAVRELSNVVEETLLANNLDKKDLDWLVPHQANLRIITATAKKLEMDMSQVVVTLDKYANNSAATVPVALDEAIRDGRIQRGQLLLLEAFGGGWTWGSALVRF | soluble
MVTNKLITLLPDLATFIVVVNEGSFTAAAKKLGVTPSALSKLITRLENALSVKLFERTTRSLLITESGKKIYQQSVIMVEAAQQAVDISSSEHTVPSGSLTVAAPKAFLTIVLQPLITPFLTKYPKIQLKLRASDGDIDMIAQGIDVVFRLTDKPTEGLVMKEIGKVNLSLCASPTYLEERGIPHLPQELANHDCLFLGETTTDHIWEFVKGTESHVIAVSGRYAVNHSQMRLNGVKDGFGIGIFPDFVIKEALANNEVISVLSDWQIKGNYHGVIAMQYAQNKYIPSRLKVFTEFVKENLMKSKVNDERT | not soluble
MGSDKIHHHHHHMKKLRELTVEELFESFVLIKNADVRVAKNGKKFIAFTFQDTSGTIDGKYWDASEDEITRFTAGNVVLLNGKREVYQNKPQVKILHMRLATAEEPSQPSLYMERAPLKKEEMVEEINQVIFEITNAHWNRIVRYLMTKYQQEFYEFPAAKRNHHAFANGLAYHTVSMLRLGKAIAKEYTEINTSLLYAGIILHDLGKVLELSGAITTEYTVAGNLIGHLVLVDEEITKACLALKIDDREEDVVVLRHMVLAHHGLLEYGSPVRPRIMEAEILHQIDTMDASIQMMLGAIRQTQPGEYTERIFGLDNRSFYVPKDK | not soluble
MGSDKIHHHHHHMSILTVSNLSHGFGDRAIFEDVSFRLLKGEHIGLVGANGEGKSTFMNIITSQLEPDEGKVEWAKHVRVGYLDQHAVLSKGLTIRDALKGAFQYLFDIEQEINDLYTKMGEVEPDELEKMLEEVGVLQDILTNNDFYTIDAKVEEIARGLGLDEIGLDRDVQELSGGQRTKILLAKLLLEKPDILLLDEPTNYLDVQHIEWLKRYLNDYENAFILISHDIPFLNSVINLIYHMENQGLNRYVGDYDNFLTVHEAKKKQHESAFKRQQQEISELKDFVARNKARVSTRNMAMSRQKKLDKMDVIELAQERPKPEFHFQTARTPSKLMFEAKGLVIGYDEPLSRPLDLMIERGQKIALHGANGIGKSTLLKSLLGEIPSVSGTVERGENLHIGYFEQEIKEKNSNTCIEEIWGTFPSLTQQQVRAMLAKCGLMTKHIESKIEVLSGGEKAKVRLCKLMNTESNILVLDEPTNHLDVEAKEELKRALQEYKGTVLLISHEPEFYEAVATDLWNCESWTTKVF | not soluble
MSEVIQDRRSAVDTARAGHMLERARWAAAAYGEYDAATVEGIVAAVAEAAHAHAERFAADAVAETGMGVVADKVRKNRACSRGIVEYYRGHDYISPRVDPDRKIVELPRPAGVVLALTPTTNPVATVYFKTILALMTRNAVVVAPHPRAARCSAEAARVLAEAAVAAGAPDGVVQVIDEPSIPLVQALMADERTDVIVATGGTAVVRAAYSSGNPALGVGPGNVPVLVDASADVAAAAQRIVDSKAFDNSVLCTNESVLIAEDAVADKLRAALTRAGAHILDEDGARRLRAYMFADGHLNTDVVGRDAAWIAGQAGLRVTPKTRVLIAPFDHVIAEEMLAHEKLSPVLGMTTVADAARGIRAARAVVRIGGAGHSAAIHSENPAVITDFAAQVPVLRVSVNVGNSTGSAGLDTNLAPSMTIGTGFVGRSSIGENLQPHNLVNWTRIAYNSDPGVVMGNFTGIDPWRAPAGPVPAYPRASNDRDGAVIQAAPQRSYQSPSRTTDVNLDALRAELRALVVEELAQLIKR | not soluble
MDITPALTEMELDHKPTCETVPGLPQKKHYRQRAHSNPHSDHDIEYPLTPNHMDWTKYYGDYTKGRQVDFADIGCGYGGLLMRLSPKYPDNLMIGMEIRVKVSDYVNEKIQALRKHHAEAGHYRNVAVLRSNAMKYMPNYFHKGQLSKMFFLFPDPHFKNKKHKWRIITPTLLSEYAYVLREGGIIYTITDVKDLHEWMVKHLSEHPLFERLTEEEMKKDPIVEMLFESTEEGQKVTRNDGGKWPAIFRRLPNPAL | not soluble
MKVDGIQAEMRAMMVEATNTTPTGTGAKVGADFNDLLTKAINNVNSLQKSSGDLQTRFDRGDADVSLSDVMIARNKSSVAFEATVQIRNKLVEAYKDLMNMPV | not soluble
MAKIDIIDNYETLLISVEEIRASLESLHAWLDKDIDWDSQCDWYDFISQHSSQIAILNLIMYRLDSLEVEHRSVIENTMKGK | not soluble
MTIHNFDLLVVGGGINGTGIARDAAGRHLSVCLCEQHDLASHTSSASTKLIHGGLRYLEYYEFALVSKALAEREILLRQAPHIVRPLHFILPHQPHLRPTWIIRAGLLLYDHLGFSRRTLPRSRRLNLAQHPAGQPLKQELHTGFMYCDAQVQDARLVVLNAMDAAQRGARILTRTRCVRTRRDGAHWLTELEDAQGRQQQIRTRAIVNAAGPWAVTFLDHIAQQPHQHTLRLVKGSHIVVPRLFEHEHAYIFQQPDRRIVFAIPYEQHFTLIGTTDVDYVADPANPHIDAAETMYLCNAVNSYFRQQITPEDVLWSYSGVRPLLNDGHNNASKVTRDYQLEILGNSAPLLNVFGGKLTTYRKLSEEAVNQLCVALDHPYRAWTANGPPLPGGEHHDIAALQNTLRQHRPWLPTATAQRLIHNYGTYAETLLGNATNLHTLGIHFGADLYQAEVDYLRTHEWACSAEDILWRRSKLGLHLDAHGTQRLEDYLRSCSRIPDHADTTTQLEHHHHHH | not soluble
MAHHHHHHMSEAAALESIMRPPSPELQRRLFVPTPSLHASAETARQHRAERQSALLAERATAYTCHPAILPVSREMAASERRRNGWMQLPVGDVLMERHKRVEGHLEEKRQQEVARFSFRPTISARARTMQSSRPVVERLYSGTADAGTDTATFTDVTNLRSSSGEKTKTASMATYQRLYQDAVTRRAHDQMQEKLARVRSKNEFCPCTDSVSGLIASKRGDTTRERLLRPKAALDVARDVYPQETFAPRINTSTRFERVPLSARAAIWQRRRSERLHHAVVARCEVEMRECTFHPRTRRGLTALSQAHARATADSYTGPLASIMSSAEELLRRVDLEASAPLPESGRCAPLLDDDGKLPGTVPVDILAVLHEAEHVSEALRLLPDTNLDLDLSQHTSLG | not soluble
KFWRRWAGQSQYKGRWREMVTRSALALKLLTSRKHGGIVAAATFGLPETEAGERNWDYRYTWIRDASFTVYAFMRLGYTDEANAFMGWVRGRLDDCCEQTEKLGILYALDGHAELPEEHLDHLTGYGGAQPVRIGNEAYKQVQLDIYGELMDAVYLANKYGDAISHDGWQHVVRQVDYVCEHWNDRDVGIWEMRGGDQHFLHSRLMCWVALDRALRLAFKRSLSGPFERWNKVREDIQNDIWDNFWNEELGHFVQYKGSRNLDASMLLMPLVRFVGANDPKWLATLDAIEAALVRDGMVFRYRNDDDHDDGLAGEEGAFVACSFWYVECLARAGRVEQAHLEFEQLLRYANPLGLYAEEFDGHARHLGNTPQALSHLALISAASFLDRKLSGEQALWQP | not soluble
MEFTDIAMELSKKAWQASFHHPFILQLQEGNLEPAIFRYYLIQDAYYLKAFSEIYHLLADKTSNQEMKRLLKQNAQGLVEGELFIRQQFFKELEISDQEMEQHPIAPTCYHYISHIYRQFAEPNLAIAFASLLPCPWLYHDIGKSLNLKPSPNPLYQQWIETYITDELEQQIREEGALVNQLYRESDETDKQKMLDAFHISVHMEAKFWEMAYQHQTWKSDLQSLEKGEEMAGDPLEHHHHHH | soluble
MGSDKIHHHHHHMALPEFKIAQLRHFVWVAELKGFHTAAEKACRTQPAISLSIRDLENKLSTILFEKRNAKTSNTELTPFGQYFLPKAKELIAHHDNVAQDMALMSEHKTGHLRLASVPSIACRMLPELLSKFIADVPELHISFYDDNSEAVLRKVEKQQVDIGIASLPHGHEHADITFTPIWEDQLGVVCREDHPFAEMTELHWKELRKQRLIRNGTSRLLEDTEAEPLLSDSQFLISNMLSLIAMLEEGLGITTLPWFAFPKNNSKLRFIPLTTPKIVRHIGIVQLKNKSLSPAAEALANFILKNTNQKKTSDLNPE | not soluble
MSLETGVTNDAIIIGQSAAMSGPAGKLGQQMNLGAKLYFKSINAAGGIYGRKIELKVLDDFYEPEAAERNTKTLINDTKVFALFGYVGTPTSLAALKVANPAGVPFFAPYSGAMALREPFARNVFHVRASYNDETAAIVQQIRTTGHKRVAVVYNDDSYGAAGLAGVKRALALPENKAVALAVEASVPRNSTTVKAALSKVLPSKADSVVVISTYQTTAALVKEALAEGFTGQFYNVSFVGTKELADALGSAGGGVVVSQVMPFPHSMSSALTRDYEKLLKADGVTSFDYGSMEGYIAARIFVEGLKRAGRDLTREKLITALETMGSTDLGGFAVSFSPTNHVASKFVEMTVINSHGQVIREGHHHHHH | soluble
MGSDKIHHHHHHMSKIVEVSKSPYAKLKTIPVGSVRVNGFMGKYFETLVNVTLPTQYDLLENTGRLDNFRIAAGKMEGSYKTLFPFDDTDVYKWAETVSFALANRKLPELEKILDSVIEEVKAAQDEDGYLGTYLSGDRKKERWTNLAWNHELYNAGHLIQAAVAHRRVTGKNTLFEVAKRFADHIYNTFGPEKKEGAPGHPEVEMALVELYRETGDRKYLDLARYFIYARGKGLASVPRNPGPEYFIDHKPFVELEEITGHAVRALYLCSGATDLYLETGDEKIWQALNRLWENFVTKKMYITGGAGSRHDWESFGEEYELPNRRSYAESCASIANFMWNFRMLLATGDGKFADVMEQVLYNGLLSGISLDGKHYFYFNPLEDYGRTRRQKWFDCACCPPNLARFIVSFPGYMYTTSDDGVQVHLYEKSTARLDFKGSVVEIEQETDYPWSGEVAFTIKTDIEEPFSIYLRLPSWADDFVLRVDGKAVIAKPQNGYVKLSQSWKGKHTVELSLPMKAVFIEAHPFVRDDLGKAAVKRGPVVYCIEQADNPDFHVWTLVLNSESLKEEKGKILDREAVFLKGTGRALDISEWEGKLYRKLSEVREKTVEFTLIPYHMWANREPGAMAVWLKR | not soluble
MGSDKIHHHHHHAQKKVIIEDEEPNSVMFVSTNKAGDEIIRIMNETRLPRFHEPKAPRFVLTDRQGKFALGIGGYVRATAEYDFGGIVKDVDFYPALIPNKGSADRARNQFQMDISTSTLFLKLVGHTKRLGDFVVYTAANFRGDGKTFELQNAYATFLGFTLGYSYGNFMDLAALPPTIDFAGPNGSAFYRTTQLSYMCDKLKNWKFGVGVEMPSVDGTTNQYLTINTQRMPDFTASAQYNWNANSHLKLAAIVRSMTYSSSVDNKAHSKAGYGLQASTSFNVTPKWQVYGQVNYGKGIGQYLNDLSNLNVDIVPNPEKEGRMQTLPMLGWFAGLQYNISKNVFVSGTYSLSRLYSEHTYPSDEPDMYRKGQYLVANLFWNVTSNLQVGAEYLRGWRTDFSSNTRHANRMNALVQYSF | not soluble
KSIYIQSPYFIPDQAFLDSIKIAALGGVDVNIMIPNKPDHPFVFWATLKNAASLLDAGVKVFHYDNGFLHSKTLVIDDEIASVGTANMDHRSFTLNFEVNAFIYDQQIAKKLKQAFIDDLAVSSELTKARYAKR | not soluble
MGSDKIHHHHHHVVQKFNRLFGKSNKGVGIELAPERVNVVQLRKQRQGLKLETFTSVAVPEGVVTDGQITDPAAMAQLIQQALAESKIKTTRVATGVPGRDSIVRIIPVPTELDDKELREMVLNHEAGLYLPYPREEADVDYQKLDYFVDEDGIEKVHVLLVATRKEITDTYISTFEQAGLQIDVLEINSFALIRTIREQLRQFGPQEAAVLVDIEFDSTEIAIIVNGVPQFSRTVPIGTYQMQTALARAMSLPTSRDMELLHGMIIPPTPLDGGKTGVTEIDPGMAAILRVLGELTDELRRSIDFYLNQSENLEVAQILLAGPGGGLQQLDEFFTQRLSLPTTQIDPIGSLSLEVDTDKYPQVKRSGLAIVLGLGMREV | not soluble
